The source of these data is patent US20210107982A1 (NANJING LEADS BIOLABS, published 2021).

Like-named read-outs stand apart in the source and are kept apart here.

By EC50 is commonly meant the concentration at which the effect is half-maximal. What is called Kd is the constant that tells how readily two partners part at equilibrium. The term koff denotes a measure of how fast the partners let go of each other. What is called kon is the rate constant with which the complex forms.

Test [1] concerns the target Human CD40 (Sinobiological, Cat #10774-H08H) (human, UniProt P25942 21-193). As to the kind of experiment: ELISA, antigen coated at 25 ng/well. (ELISA stands for enzyme-linked immunosorbent assay.)
For test [2], the target named is T1, Human CD27 (Sinobiological, Cat #10039-H31H) (human, UniProt P26842 20-192).
T1 sequence (looked up): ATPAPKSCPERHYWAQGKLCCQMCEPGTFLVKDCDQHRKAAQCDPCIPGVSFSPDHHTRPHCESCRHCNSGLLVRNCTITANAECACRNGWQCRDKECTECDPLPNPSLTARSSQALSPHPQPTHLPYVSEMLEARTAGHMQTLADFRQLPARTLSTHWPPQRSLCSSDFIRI
Put plainly: ELISA, antigen coated at 25 ng/well.

Test [3] addresses T2, Human OX40 (Sinobiological, Cat #10481-H08H) (human, UniProt P43489 29-216).
T2 sequence (looked up): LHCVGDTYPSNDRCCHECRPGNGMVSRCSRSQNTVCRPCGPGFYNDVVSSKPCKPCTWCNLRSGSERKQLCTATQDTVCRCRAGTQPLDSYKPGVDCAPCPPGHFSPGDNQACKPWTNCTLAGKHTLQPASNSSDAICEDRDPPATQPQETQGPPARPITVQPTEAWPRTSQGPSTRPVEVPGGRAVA
As to the kind of experiment: ELISA, antigen coated at 25 ng/well.

Test [4] deals with T3, Human GITR (Sinobiological, Cat #13643-H08H) (human, UniProt Q9Y5U5 26-161).
T3 sequence (looked up): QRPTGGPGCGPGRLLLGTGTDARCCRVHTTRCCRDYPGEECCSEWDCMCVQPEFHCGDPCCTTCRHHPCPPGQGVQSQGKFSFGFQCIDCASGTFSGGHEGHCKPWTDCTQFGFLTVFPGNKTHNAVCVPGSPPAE
As to the kind of experiment: ELISA, antigen coated at 25 ng/well.

Test [5] deals with T4, Human HVEM (Sinobiological, Cat #10334-H03H) (human, UniProt Q92956 39-202).
T4 sequence (looked up): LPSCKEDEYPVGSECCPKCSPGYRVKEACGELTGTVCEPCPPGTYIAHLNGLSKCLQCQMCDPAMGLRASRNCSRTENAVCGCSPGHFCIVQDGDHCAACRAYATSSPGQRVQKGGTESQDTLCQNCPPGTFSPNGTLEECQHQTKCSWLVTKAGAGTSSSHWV
As to the kind of experiment: ELISA, antigen coated at 25 ng/well.

Test [6] deals with T5, Human 4-1BB expressed on HEK293-NFκB-Luc-human 4-1BB cells (human, UniProt Q07011 24-255). As to the kind of experiment: cell-based or functional assay.
T5 sequence (Q07011 24-255 limits assumed): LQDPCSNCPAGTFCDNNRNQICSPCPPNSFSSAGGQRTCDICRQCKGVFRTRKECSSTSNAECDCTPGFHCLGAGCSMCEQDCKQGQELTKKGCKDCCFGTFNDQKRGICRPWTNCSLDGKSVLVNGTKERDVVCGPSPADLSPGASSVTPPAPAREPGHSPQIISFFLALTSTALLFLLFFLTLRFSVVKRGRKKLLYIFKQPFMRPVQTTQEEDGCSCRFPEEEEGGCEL
Test [7] concerns the target T6, Human 4-1BB recombinant protein (Sinobiological, Cat #10041-H08H) (human, UniProt Q07011 24-186).
T6 construct: Bought recombinant protein
As to the kind of experiment: ELISA on plate-coated human 4-1BB (25 ng/well), HRP anti-human IgG F(ab')2 detection, OD450; EC50 table under the curve, unit taken from the axis 'Antibody Conc [nM]'.

Test [8] addresses T5, Human 4-1BB expressed on …. Put plainly: cell-based or functional assay. This is another data set of the same source.
The target of test [9] is T5, Human 4-1BB expressed on …. As to the kind of experiment: cell-based or functional assay. This is another data set of the same source.
Test [10] deals with T6, Human 4-1BB recombinant protein …. Put plainly: ELISA on plate-coated human 4-1BB (25 ng/well), HRP anti-human IgG F(ab')2 detection, OD450; EC50 table under the curve, unit taken from the axis 'Antibody Conc [nM]'. The source holds these as a separate data set.
For test [11], the target named is T5, Human 4-1BB expressed on …. Put plainly: cell-based or functional assay. The source holds these as a separate data set.
Test [12] addresses T5, Human 4-1BB expressed on …. Put plainly: cell-based or functional assay. This is another data set of the same source.
Test [13] addresses T6, Human 4-1BB recombinant protein …. As to the kind of experiment: ELISA on plate-coated human 4-1BB (25 ng/well), HRP anti-human IgG F(ab')2 detection, OD450; EC50 table under the curve, unit taken from the axis 'Antibody Conc [nM]'. This is another data set of the same source.
Test [14] has as its target T5, Human 4-1BB expressed on …. As to the kind of experiment: cell-based or functional assay. This is another data set of the same source.
The target of test [15] is T7, Human 4-1BB, human Fc tag protein (Hu4-1BB-hFc) (human).
T7 construct: also called Hu4-1BB-huFc; human 4-1BB proteins
T7 sequence (chain, as listed by the source limits assumed): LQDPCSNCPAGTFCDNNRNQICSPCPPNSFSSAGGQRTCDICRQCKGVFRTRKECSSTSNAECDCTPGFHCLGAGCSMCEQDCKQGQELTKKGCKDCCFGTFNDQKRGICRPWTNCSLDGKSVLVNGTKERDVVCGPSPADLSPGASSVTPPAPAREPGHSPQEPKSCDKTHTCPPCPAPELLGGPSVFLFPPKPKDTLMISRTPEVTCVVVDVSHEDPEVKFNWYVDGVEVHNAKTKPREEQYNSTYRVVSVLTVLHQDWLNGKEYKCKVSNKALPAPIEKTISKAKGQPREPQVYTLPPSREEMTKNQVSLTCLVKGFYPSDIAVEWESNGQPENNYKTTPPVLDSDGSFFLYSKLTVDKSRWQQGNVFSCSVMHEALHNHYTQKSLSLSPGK
As to the kind of experiment: ELISA, Hu4-1BB-hFc coated, antibody 6.65 nM to 0.009 nM.

Test [16] has as its target T6, Human 4-1BB recombinant protein …. Put plainly: BLI (ForteBio Octet RED 96), antibody on AHC sensors, human 4-1BB as analyte, 1:1 model. On the technique in general: Biolayer interferometry detects binding as a change in optical thickness at a sensor tip.
Test [17] has the same target. As to the kind of experiment: ELISA on plate-coated human 4-1BB (25 ng/well), HRP anti-human IgG F(ab')2 detection, OD450-620; EC50 table under the curve, unit taken from the axis 'Antibody Conc [nM]'.
Test [18] deals with T5, Human 4-1BB expressed on …. Put plainly: cell-based or functional assay. This is another data set of the same source.

Chain of Human CD40 (Sinobiological, Cat #10774-H08H) (P25942 21-193 limits assumed): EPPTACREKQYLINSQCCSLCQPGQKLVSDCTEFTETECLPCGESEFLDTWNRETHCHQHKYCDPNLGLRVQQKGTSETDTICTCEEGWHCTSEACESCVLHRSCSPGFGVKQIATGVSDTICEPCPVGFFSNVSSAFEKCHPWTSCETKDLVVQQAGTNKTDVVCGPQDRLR

B1: 41BB-13-IgG2 (antibody, V domains shown)
VH: EVQLVETGVEVKKPGASVKVSCKASGYTFTSYYMHWVRQAPGQGLEWMGIINPSGGSTSYAQKFQGRVTMTRDTSTSTAYMELSSLRSEDTAVYYCARDLGEGYDFWSGYYTPSGAFDIWGKGTMVTVSS
VL: QSALTQPASVSGSPGQSITISCTGTSSDVGGYNYVSWYQQRPGKAPKLIIYDVTTRPSGVSNRFSGSKSGTTASLTISGLQAEDEADYYCSSYTSYSTWVFGGGTKLTVLG
notes: Full antibody, IgG2 / lambda
Regarding B1, the binding result in [1], in test [2], in test [3], in [4] and in test [5] was “no binding (tested: 500 ng/mL)” throughout. Also, the “EC50, NFκB-luciferase reporter (RLUs) in HEK293-NFκB-Luc-4-1BB cells, with crosslink (goat anti-human IgG)” value (“EC50 … (goat anti-human IgG)” for short) in [6] turned out to be 10.6 nM. In addition, in test [7], the EC50 amounted to 1.27 nM. For the same molecule, in test [8], the “EC50, NFκB-luciferase reporter (RLUs) in HEK293-NFκB-Luc-4-1BB cells, without crosslink” value (“EC50 … without crosslink” for short) turned out to be 106 nM.

B2: 41BB-27-IgG2 (antibody, V domains shown)
VH: QVQLQESGPGPVKPSETLSLTCAVSGGSISSSHWWSWVRQPPGKGLEWIGEIYHSGRTYYNPSLKSRVTISVDTSRNQFSLKLSSVTAADTAVYYCAREDGGIMDVWGQGTLVTVSS
VL: LSSELTQDPAVSVALGQTVRITCQGDSLRRFYASWYQQKPGQAPVLVIYGKNNRPSGIPDRFSASDSGNTASLTITGAQAEDEADYYCSSRDRSGYRWVFGGGTKVTVLG
notes: Full antibody, IgG2 / lambda
Turning to B2, the “EC50 … without crosslink” value in [9] was 35.9 nM. In addition, the binding result in test [1], in test [2], in [3], in test [4] and in test [5] was “no binding (tested: 500 ng/mL)” throughout. Moreover, in test [10], the EC50 stood at 0.05 nM.

B3: 41BB-9-IgG2 (antibody, V domains shown)
VH: QVQLVQSGAEVKKPGSSVKVSCKASGGTFSSYAISWVRQAPGQGLEWMGGIIPISGAVNYAQKFQGRVTITADESTSTAYMELSSLRSEDTAVYYCARDQFIKYYDFSSGYFPNGFDIWGKGTLVTVSS
VL: QTVVTQPPSVSVSPGQTASITCSGDKLGDKYAAWYQQKPGQSPVLVIYQDTVRPSGIPERFSGSNSGNTATLTISGTQAMDEADYYCQTWVSSTGVFGTGTKVTVLG
notes: Full antibody, IgG2 / lambda
Regarding B3, the “EC50 … (goat anti-human IgG)” value in test [11] is 3.24 nM. Also, the binding result in test [1], in test [2], in [3], in [4] and in [5] was “no binding (tested: 500 ng/mL)” each time. The “EC50 … without crosslink” value in test [12] amounted to 16.6 nM. Further, in test [13], the concentration for a half-maximal effect (EC50) amounted to 0.134 nM.

B4: Urelumab (antibody, human IgG4 S228P, kappa, V domains shown)
VH: QVQLQQWGAGLLKPSETLSLTCAVYGGSFSGYYWSWIRQSPEKGLEWIGEINHGGYVTYNPSLESRVTISVDTSKNQFSLKLSSVTAADTAVYYCARDYGPGNYDWYFDLWGRGTLVTVSS
VL: EIVLTQSPATLSLSPGERATLSCRASQSVSSYLAWYQQKPGQAPRLLIYDASNRATGIPARFSGSGSGTDFTLTISSLEPEDFAVYYCQQRSNWPPALTFCGGTKVEIKR
B4: the “EC50 … without crosslink” value is 34 nM in test [12], 32.3 nM in test [8] and 26.8 nM in test [14].

B5: P4B-2 (bispecific antibody, human IgG1, kappa, L234A L235A)
heavy: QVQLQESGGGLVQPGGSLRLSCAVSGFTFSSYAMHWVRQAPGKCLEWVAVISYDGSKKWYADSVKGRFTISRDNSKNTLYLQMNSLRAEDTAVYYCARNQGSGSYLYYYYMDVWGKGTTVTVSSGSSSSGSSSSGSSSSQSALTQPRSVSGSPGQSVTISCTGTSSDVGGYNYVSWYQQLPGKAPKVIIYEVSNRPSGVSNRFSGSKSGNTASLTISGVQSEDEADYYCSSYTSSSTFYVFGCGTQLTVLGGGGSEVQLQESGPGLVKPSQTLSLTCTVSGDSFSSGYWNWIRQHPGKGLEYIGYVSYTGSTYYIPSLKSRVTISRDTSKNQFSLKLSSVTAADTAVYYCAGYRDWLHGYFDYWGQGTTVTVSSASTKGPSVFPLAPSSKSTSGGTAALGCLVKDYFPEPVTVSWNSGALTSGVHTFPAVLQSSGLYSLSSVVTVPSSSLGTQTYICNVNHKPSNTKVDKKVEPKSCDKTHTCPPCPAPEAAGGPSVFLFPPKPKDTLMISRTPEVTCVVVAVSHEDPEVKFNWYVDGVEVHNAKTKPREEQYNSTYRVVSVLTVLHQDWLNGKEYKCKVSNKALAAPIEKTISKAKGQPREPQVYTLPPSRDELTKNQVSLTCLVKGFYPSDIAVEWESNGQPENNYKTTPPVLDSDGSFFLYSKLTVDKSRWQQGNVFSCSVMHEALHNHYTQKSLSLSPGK
light: DIQMTQSPSSLSASVGDRVTITCKASQNVMDNVAWYQQKPGKAPKRLIYSASYRFSGVPSRFSGSGSGTEFTLTISSLQPEDFATYYCQQYNGYPLTFGQGTKLEIKRTVAAPSVFIFPPSDEQLKSGTASVVCLLNNFYPREAKVQWKVDNALQSGNSQESVTEQDSKDSTYSLSSTLTLSKADYEKHKVYACEVTHQGLSSPVTKSFNRGEC
notes: PD-L1 x 4-1BB bispecific; the 4-1BB scFv stands at the N-terminus of each heavy chain of the PD-L1 antibody
In the case of B5, in test [15], a half-maximal response (EC50) required 0.113 nM.

B6: P4B-3 (bispecific antibody, human IgG1, kappa, L234A L235A)
heavy: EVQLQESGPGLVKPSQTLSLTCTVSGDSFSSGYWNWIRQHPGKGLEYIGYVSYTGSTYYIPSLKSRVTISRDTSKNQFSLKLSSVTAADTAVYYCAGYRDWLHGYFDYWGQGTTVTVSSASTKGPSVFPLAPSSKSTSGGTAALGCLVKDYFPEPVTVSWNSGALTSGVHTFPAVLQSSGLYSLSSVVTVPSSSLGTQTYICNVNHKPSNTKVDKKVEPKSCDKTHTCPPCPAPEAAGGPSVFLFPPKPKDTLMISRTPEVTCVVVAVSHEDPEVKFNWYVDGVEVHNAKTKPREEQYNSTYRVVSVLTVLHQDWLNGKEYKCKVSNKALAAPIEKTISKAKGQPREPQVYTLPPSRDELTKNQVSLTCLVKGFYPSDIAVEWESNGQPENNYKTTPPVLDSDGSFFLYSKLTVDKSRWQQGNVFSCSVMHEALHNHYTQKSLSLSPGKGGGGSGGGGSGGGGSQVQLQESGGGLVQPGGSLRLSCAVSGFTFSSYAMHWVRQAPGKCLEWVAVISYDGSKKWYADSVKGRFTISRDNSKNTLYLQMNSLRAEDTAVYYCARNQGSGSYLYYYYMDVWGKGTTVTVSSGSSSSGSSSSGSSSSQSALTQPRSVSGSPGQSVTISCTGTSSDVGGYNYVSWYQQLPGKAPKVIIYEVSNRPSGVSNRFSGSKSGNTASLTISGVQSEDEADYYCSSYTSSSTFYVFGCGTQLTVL
light: DIQMTQSPSSLSASVGDRVTITCKASQNVMDNVAWYQQKPGKAPKRLIYSASYRFSGVPSRFSGSGSGTEFTLTISSLQPEDFATYYCQQYNGYPLTFGQGTKLEIKRTVAAPSVFIFPPSDEQLKSGTASVVCLLNNFYPREAKVQWKVDNALQSGNSQESVTEQDSKDSTYSLSSTLTLSKADYEKHKVYACEVTHQGLSSPVTKSFNRGEC
notes: PD-L1 x 4-1BB bispecific; the 4-1BB scFv stands at the C-terminus of each heavy chain of the PD-L1 antibody
With B6, in test [16], the Kd came to 146 nM, the koff stood at 0.00409 s⁻¹ and the kon amounted to 28000 M⁻¹ s⁻¹. In addition, in [15], the EC50 was found to be 0.0723 nM.

B7: 41BB-2-IgG2 (antibody, V domains shown)
VH: QVQLQESGGGLVQPGGSLRLSCAVSGFTFSSYAMHWVRQAPGKGLEWVAVISYDGSKKWYADSVKGRFTISRDNSKNTLYLQMNSLRAEDTAVYYCARNQGSGSYLYYYYMDVWGKGTTVTVSS
VL: QSALTQPRSVSGSPGQSVTISCTGTSSDVGGYNYVSWYQQLPGKAPKVIIYEVSNRPSGVSNRFSGSKSGNTASLTISGVQSEDEADYYCSSYTSSSTFYVFGTGTQLTVLS
notes: Full antibody; VH joined to the IgG2 constant region, VL to the lambda constant region
On to B7, for which the “EC50 … without crosslink” value came out at 56.1 nM in [9] and 47.4 nM in test [14]. Further, the EC50 in [17] turned out to be 0.622 nM. In addition, the binding result in test [1], in test [2], in test [3], in test [4] and in [5] was “no binding (tested: 500 ng/mL)” in each case. Further, in [18], the “EC50 … (goat anti-human IgG)” value came out at 6.21 nM.
